According to patent US20240216484A1 (URSAPHARM ARZNEIMITTEL, published 2024):

B1: HZI 2-05 (Anlec in TBS; lectin batch isolated from bromelain) (other)
chain: MSGLVKLGLWGGNEGTLQDIDGHPTRLTKIVIRSAHAIDALQFDYVEDGKTFAAGQWGGNGGKSDTIEFQPGEYLIAIKGTTGALGAVTNLVRSLTFISNMRTYGPFGLEHGTPFSVPVASGRIVAFYGRFGSLVDAFGIYLMPY
B2: Acm-JRL 2 (Anlec in TBS, Batch 2) (other)
chain: B1 chain
B3: HZI 2-10 (Anlec in TBS; lectin batch isolated from bromelain, protease inhibited with MMTS) (other)
chain: B1 chain
B4: HZI 2-06 (Anlec in dist. water; lectin batch isolated from bromelain) (other)
chain: B1 chain

Target: SARS-CoV-2 spike protein, extracellular domain (1-1213), recombinant from HEK293 cells (SARS-CoV-2, UniProt P0DTC2 14-1213)

Binder	koff [s⁻¹]	kon [M⁻¹ s⁻¹]
B1	0.005	133
B2	0.003	–
B3	0.003	286
B4	0.008	359
